This note sets out measurements from publication doi:10.1101/2022.10.12.511876.

Like-named read-outs stand apart in the source and are kept apart here.

Assay [1] addresses Mpf2Ba1 activated by WCR gut fluid (N-terminally cleaved after Lys25) (Pseudomonas monteilii). Nature of the assay: cryo-EM structure.
For assay [2] the target is unchanged. Briefly: cryo-EM structure. This is another data set of the same source.

Take “Mpf2Ba1 activated by WCR gut fluid (N-terminally cleaved after Lys25) (domain or fragment)”: the values for the stoichiometry N in assay [1] and in assay [2] were 21 and 22, respectively.
